According to US20150216948A1, “CYTOCHROME P450 SUICIDE GENE SYSTEM” (priority 2012, published 2015):

Tested on: HepG2 cells
Experiment: 4-IPO toxicity assay: survival of transduced HepG2 cells by flow cytometry (propidium iodine)
Type: cell-based, human
Conditions: for 4-IPO processing activity / cell killing (in words): transduced cells challenged with 4-IPO
Description: Initially, the serine at position 427 in the human CYP4B1 was mutated back to proline (h-P427), which is present at this position in all CYP4B1 proteins. Additionally a proline to serine exchange was created in the native rabbit CYP4B1 enzyme at the corresponding position 422 (r-P422). To immediately exclude the possibility that the different activities between human and the rabbit protein isoforms are simply due to differences in mRNA stability, the human CYP4B1 cDNA (SEQ ID NO.: 2) was optimized for human-codon usage (SEQ ID NO.: 3) by de novo synthesis with silent mutagenesis of the cDNA, thus removing internal TATA-boxes, instability motives, RNA secondary structures and (cryptic) splice donor/acceptor sites and ensuring an average GC content of around 60%. All cDNAs were cloned into the same lentiviral (LV) HIV1-based expression vector and LV supernatants produced by plasmid transfection in HEK293T cells. Subsequently, the two rabbit and the four human cDNAs were stably expressed in the human liver cell line HepG2. Stably expressing transduced cells were challenged after five days with increasing concentrations of 4-IPO for 24, 48 and 72 hours and then the survival of cells analyzed by flow cytometry using propidium iodine for live/dead cell discrimination.
Next, it was analyzed whether the different activities of the human and the rabbit proteins in processing 4-IPO could be explained by differences in protein half-life. However, as no antibody was available that can detect both CYP4B1 proteins, EGFP fusion constructs were generated. With these constructs, EGFP antibodies can be utilized to visualize and compare the expression levels and the half-lives of the fusion proteins in cells by western blots. EGFP expression can also be used for flow cytometry assessment of the expression levels due to the fluorescent properties of the fusion proteins. 5′- and 3′-fusions of EGFP with the native rabbit P422 and the human P427 CYP4B1 proteins were cloned in LV vectors with an IRES-NEO (NEO=neomycin phosphotransferase cDNA, npt II) and stably expressed in HepG2 cells (FIG. 3 B). For comparison, the corresponding IRES-EGFP constructs were also included, as these vectors had already been used in previous experiments and activity measurements thus already existed. Transduced cells were incubated for 24, 48 and 72 hours with increasing concentration of 4-IPO. Cultures were then harvested, cells stained with propidium iodine and subsequently analyzed for survival of transduced EGFP+ cells by flow cytometry (FIG. 3 A).

B1: modified human CYP4B1 P427 protein with the additional section 1 of the rabbit protein: differs in only four amino acid from the native human CYP4B1 protein (protein)
chain: MVPSFLSLSFSSLGLWASGLILVLGFLKLIHLLLRRQTLAKAMDKFPGPPTHWLFGHALEIQETGSLDKVVSWAHQFPYAHPLWFGQFIGFLNIYEPDYAKAVYSRGDPKAPDVYDFFLQWIGKGLLVLDGPKWFQHRKLLTPGFHYDVLKPYVAVFTESTRIMLDKWEEKAREGKSFDIFCDVGHMALNTLMKCTFGRGDTGLGHRDSSYYLAVSDLTLLMQQRLVSFQYHNDFIYWLTPHGRRFLRACQVAHDHTDQVIRERKAALQDEKVRKKIQNRRHLDFLDILLGARDEDDIKLSDADLRAEVDTFMFEGHDTTTSGISWFLYCMALYPEHQHRCREEVREILGDQDFFQWDDLGKMTYLTMCIKESFRLYPPVPQVYRQLSKPVTFVDGRSLPAGSLISMHIYALHRNSAVWPDPEVFDPLRFSTENASKRHPFAFMPFSAGPRNCIGQQFAMSEMKVVTAMCLLRFEFSLDPSRLPIKMPQLVLRSKNGFHLHLKPLGPGSGK
4-IPO processing activity / cell killing (in words): increased activity for toxifying 4-IPO

B2: variant of hCYP4B1 having an insertion of a serine at position 207: human CYP4B1 variant with serine insertion at amino acid position 207 (protein, listed as Homo sapiens)
chain: MVPSFLSLSFSSLGLWASGLILVLGFLKLIHLLLRRQTLAKAMDKFPGPPTHWLFGHALEIQETGSLDKVVSWAHQFPYAHPLWFGQFIGFLNIYEPDYAKAVYSRGDPKAPDVYDFFLQWIGRGLLVLEGPKWLQHRKLLTPGFHYDVLKPYVAVFTESTRIMLDKWEEKAREGKSFDIFCDVGHMALNTLMKCTFGRGDTGLGHSRDSSYYLAVSDLTLLMQQRLVSFQYHNDFIYWLTPHGRRFLRACQVAHDHTDQVIRERKAALQDEKVRKKIQNRRHLDFLDILLGARDEDDIKLSDADLRAEVDTFMFEGHDTTTSGISWFLYCMALYPEHQHRCREEVREILGDQDFFQWDDLGKMTYLTMCIKESFRLYPPVPQVYRQLSKPVTFVDGRSLPAGSLISMHIYALHRNSAVWPDPEVFDSLRFSTENASKRHPFAFMPFSAGPRNCIGQQFAMSEMKVVTAMCLLRFEFSLDPSRLPIKMPQLVLRSKNGFHLHLKPLGPGSGK
modifications: serine insertion at 207
4-IPO processing activity / cell killing (in words): did not reveal any functional differences

B3: CYP4B1 P427 mut18: modified human CYP4B1 P427 with sections 1+2+3 of the rabbit protein; differs in 19 amino acids (protein)
chain: MVPSFLSLSFSSLGLWASGLILVLGFLKLIHLLLRRQTLAKAMDKFPGPPTHWLFGHALEIQETGSLDKVVSWAHQFPYAHPLWFGQFIGFLNIYEPDYAKAVYSRGDPKAPDVYDFFLQWIGKGLLVLDGPKWFQHRKLLTPGFHYDVLKPYVAIFADSTRIMLEKWEKKACEGKSFDIFSDVGHMALDTLMKCTFGKGDSGLNHRDSSYYVAVSELTLLMQQRIDSFQYHNDFIYWLTPHGRRFLRACQVAHDHTDQVIRERKAALQDEKVRKKIQNRRHLDFLDILLGARDEDDIKLSDADLRAEVDTFMFEGHDTTTSGISWFLYCMALYPEHQHRCREEVREILGDQDFFQWDDLGKMTYLTMCIKESFRLYPPVPQVYRQLSKPVTFVDGRSLPAGSLISMHIYALHRNSAVWPDPEVFDPLRFSTENASKRHPFAFMPFSAGPRNCIGQQFAMSEMKVVTAMCLLRFEFSLDPSRLPIKMPQLVLRSKNGFHLHLKPLGPGSGK
4-IPO processing activity / cell killing (in words) (listed as human P427 CYP4B1 protein with sections 1+2+3): almost as high as the activity of native rabbit protein
4-IPO processing activity / cell killing (in words) (listed as modified human CYP4B1 P427 protein with sections 1+2+3 of the rabbit protein): increased activity for toxifying 4-IPO
cell survival rates (within 72 hours upon applying 4-IPO, FIG. 6 D): about 10%
